Experimental data as given in patent US7972815B2, “Method of producing sugar chain using human G4 polypeptide” (Kyowa Hakko Kirin Co., Ltd., priority 1999, dated 2011).

Columns and labels:
[1] = β1,3-N-acetylglucosaminyl transferase activity of secreted FLAG peptide-fused polypeptides (method of Example 8); assay type: biochemical, human
Protocol: (§1) Specifically, the reaction was carried out at 37° C. for 16 hours in 30 μl of an assay solution [200 mmol/l of MOPS (pH 7.5), 50 mmol/l of UDP-GlcNAc (SIGMA), 20 mmol/l of MnCl2, 0.3% Triton X-100, 50 μM of a pyridylaminated sugar chain substrate and 10 μl of the above cell lysate], and then products were detected by a high performance liquid chromatography (HPLC).
As a substrate, lacto-N-neotetraose (Galβ1-4GlcNAcβ1-3Galβ1-4Glc; hereinafter referred to as “LNnT”) fluorescence-labeled with aminopyridine was used.
After carrying out the reaction by using the assay solution with or without UDP-GlcNAc (sugar donor), HPLC was carried out and peaks appeared only in the assay solution containing UDP-GlcNAc were defined as products.
The assay solution after completion of the reaction was treated at 100° C. for 5 minutes and then centrifuged at 10,000×g for 5 minutes, and a portion (5 μl) of the thus obtained supernatant was applied to HPLC.
The HPLC was carried out by using TSK-gel ODS-80Ts column (4.6×300 mm; Tosoh); 0.02 M ammonium acetate buffer (pH 4.0) was used as an eluate at elution temperature 50° C. and flow rate 0.5 ml/min.
(§2) Products were detected by using a fluorescence spectrum photometer FP-920 (JASCO Corporation) (excitation wavelength 320 nm, radiation wavelength 400 nm). […]
(§3) The amount of products was measured by using pyridylaminated lactose as a standard and comparing their fluorescence intensity.
A β1,3-N-acetylglucosaminyl transferase activity of FLAG peptide-fused G4 polypeptide expressed as a secreted form in Namalwa KJM-1 cell was measured by using 15 μl of the eluate prepared in the above (4). […] As a result, a β1,3-N-acetylglucosaminyl transferase activity was detected when the eluate derived from the culture supernatant of pAMoF2-G4-introduced Namalwa KJM-1 cell was used. […] On the other hand, the activity was not detected when the eluate derived from the culture supernatant of Namalwa KJM-1 cell transformed by the vector pAMoF2 was used.
A β1,3-N-acetylglucosaminyl transferase activity of FLAG peptide-fused G4 polypeptide produced as a secreted form in the insect cell was measured using 15 μl of the eluate prepared in the above (3). […] As a result, a β1,3-N-acetylglucosaminyl transferase activity was detected when the eluate derived from the culture supernatant of the insect cell transformed by pVL1393-F2G4 was used.
A β1,3-N-acetylglucosaminyl transferase activity was also detected when the resin before elution was used. […]
A β1,3-N-acetylglucosaminyl transferase activity of FLAG peptide-fused G3 polypeptide was measured by using 15 μl of the purified sample prepared in the above (3). […] As a result, a β1,3-N-acetylglucosaminyl transferase activity was detected. […]

[2] = β1,3-N-acetylglucosaminyl transferase activity in cell extract of stable transformants (Example 8); assay type: biochemical, human; conditions: cell extract of Namalwa KJM-1 transformed by expression plasmid; 50 μM pyridylaminated LNnT; 37° C., 16 hours; control plasmid cells 1.8%
Protocol: The β1,3-N-acetylglucosaminyl transferase activity was examined by using a cell extract of stable transformants which were transformed by a plasmid capable of expressing G3, G4, G4-2 or G7 polypeptide obtained in Example 7.
The transformed cells (about 2×10^7) were transferred into a microtube (1.5 ml: manufactured by Eppendorf) and centrifuged (550×g for 7 minutes) to collect the cells. The cells were washed with 0.9 ml of PBS, the washed cells were suspended in a solution […] composed of 20 mmol/l HEPES (pH 7.2) and 1% Triton X-100 and then the cells were disrupted by a sonicator (Bioruptor; manufactured by Cosmo Bio). After standing at 4° C. for 1 hour, a supernatant was obtained by centrifugation (550×g for 7 minutes). The supernatant was used as an enzyme sample. The β1,3-N-acetylglucosaminyl transferase activity was measured by using this enzyme sample.
Preparation of a pyridylaminated sugar chain substrates and activity measurement were carried out in accordance with known methods [Japanese Published Unexamined Patent Application No. 181757/94, Japanese Published Unexamined Patent Application No. 823021/94, J. Biol. Chem., 269, 14730 (1994), J. Biol. Chem., 267, 2994 (1992)].
as §1
As a substrate, lacto-N-neotetraose (Galβ1-4GlcNAcβ1-3Galβ1-4Glc; hereinafter referred to as “LNnT”) fluorescence-labeled with aminopyridine was used. […]
as §2, §3

[3] = 15 μl eluate/purified sample from insect cell (Sf21) culture supernatant

| ratio of the substrate converted into the product [1, 3] [%] | ratio of the substrate converted into the product ([1]; 15 μl eluate from culture supernatant of pAMoF2-G4-introduced Namalwa KJM-1 cell) [%] | ratio of the substrate converted into the product ([1]; insect cell product, resin before elution (enzyme adsorbed to Anti-FLAG M1 Affinity Gel)) [%] | Molecule | ratio of a substrate (LNnT) converted into a product (GlcNAcβ1-3Galβ1-4GlcNAcβ1-3Galβ1-4Glc) [2] [%] |
| --- | --- | --- | --- | --- |
| 100 | – | – | FLAG peptide-fused G3 polypeptide: secreted G3, 31st serine to 397th cysteine of SEQ ID NO:1, with immunoglobulin signal sequence and FLAG peptide (protein, listed as Homo sapiens, Ig signal sequence and FLAG peptide) SSQEKNGKGEVIIPKEKFWKISTPPEAYWNREQEKLNRQYNPILSMLTNQTGEAGRLSNISHLNYCEPDLRVTSVVTGFNNLPDRFKDFLLYLRCRNYSLLIDQPDKCAKKPFLLLAIKSLTPHFARRQAIRESWGQESNAGNQTVVRVFLLGQTPPEDNHPDLSDMLKFESEKHQDILMWNYRDTFFNLSLKEVLFLRWVSTSCPDTEFVFKGDDDVFVNTHHILNYLNSLSKTKAKDLFIGDVIHNAGPHRDKKLKYYIPEVVYSGLYPPYAGGGGFLYSGHLALRLYHITDQVHLYPIDDVYTGMCLQKLGLVPEKHKGFRTFDIEEKNKNNICSYVDLMLVHSRKPQEMIDIWSQLQSAHLKC | – |
| – | – | – | G4: polypeptide composed of 372 amino acids, SEQ ID NO:2; novel β1,3-N-acetylglucosaminyl transferase (protein, listed as Homo sapiens) MKYLRHRRPNATLILAIGAFTLLLFSLLVSPPTCKVQEQPPAIPEALAWPTPPTRPAPAPCHANTSMVTHPDFATQPQHVQNFLLYRHCRHFPLLQDVPPSKCAQPVFLLLVIKSSPSNYVRRELLRRTWGRERKVRGLQLRLLFLVGTASNPHEARKVNRLLELEAQTHGDILQWDFHDSFFNLTLKQVLFLQWQETRCANASFVLNGDDDVFAHTDNMVFYLQDHDPGRHLFVGQLIQNVGPIRAFWSKYYVPEVVTQNERYPPYCGGGGFLLSRFTAAALRRAAHVLDIFPIDDVFLGMCLELEGLKPASHSGIRTSGVRAPSQHLSSFDPCFYRDLLLVHRFLPYEMLLMWDALNQPNLTCGNQTQIY | 2.8 |
| – | – | – | G4-2: polypeptide containing 372 amino acids, SEQ ID NO:3; 328th amino acid Arg instead of His (protein, listed as Homo sapiens) MKYLRHRRPNATLILAIGAFTLLLFSLLVSPPTCKVQEQPPAIPEALAWPTPPTRPAPAPCHANTSMVTHPDFATQPQHVQNFLLYRHCRHFPLLQDVPPSKCAQPVFLLLVIKSSPSNYVRRELLRRTWGRERKVRGLQLRLLFLVGTASNPHEARKVNRLLELEAQTHGDILQWDFHDSFFNLTLKQVLFLQWQETRCANASFVLNGDDDVFAHTDNMVFYLQDHDPGRHLFVGQLIQNVGPIRAFWSKYYVPEVVTQNERYPPYCGGGGFLLSRFTAAALRRAAHVLDIFPIDDVFLGMCLELEGLKPASHSGIRTSGVRAPSQRLSSFDPCFYRDLLLVHRFLPYEMLLMWDALNQPNLTCGNQTQIY | 2.8 |
| – | – | – | G3: polypeptide containing 397 amino acids, SEQ ID NO:1; novel β1,3-N-acetylglucosaminyl transferase (protein, listed as Homo sapiens) MSVGRRRIKLLGILMMANVFIYFIMEVSKSSSQEKNGKGEVIIPKEKFWKISTPPEAYWNREQEKLNRQYNPILSMLTNQTGEAGRLSNISHLNYCEPDLRVTSVVTGFNNLPDRFKDFLLYLRCRNYSLLIDQPDKCAKKPFLLLAIKSLTPHFARRQAIRESWGQESNAGNQTVVRVFLLGQTPPEDNHPDLSDMLKFESEKHQDILMWNYRDTFFNLSLKEVLFLRWVSTSCPDTEFVFKGDDDVFVNTHHILNYLNSLSKTKAKDLFIGDVIHNAGPHRDKKLKYYIPEVVYSGLYPPYAGGGGFLYSGHLALRLYHITDQVHLYPIDDVYTGMCLQKLGLVPEKHKGFRTFDIEEKNKNNICSYVDLMLVHSRKPQEMIDIWSQLQSAHLKC | 2.7 |
| 12.1 | 0.51 | 21.0 | FLAG peptide-fused G4 polypeptide: secreted G4, 38th glutamic acid to 372nd tyrosine of SEQ ID NO:2, with immunoglobulin signal sequence and FLAG peptide (protein, listed as Homo sapiens, Ig signal sequence and FLAG peptide) EQPPAIPEALAWPTPPTRPAPAPCHANTSMVTHPDFATQPQHVQNFLLYRHCRHFPLLQDVPPSKCAQPVFLLLVIKSSPSNYVRRELLRRTWGRERKVRGLQLRLLFLVGTASNPHEARKVNRLLELEAQTHGDILQWDFHDSFFNLTLKQVLFLQWQETRCANASFVLNGDDDVFAHTDNMVFYLQDHDPGRHLFVGQLIQNVGPIRAFWSKYYVPEVVTQNERYPPYCGGGGFLLSRFTAAALRRAAHVLDIFPIDDVFLGMCLELEGLKPASHSGIRTSGVRAPSQHLSSFDPCFYRDLLLVHRFLPYEMLLMWDALNQPNLTCGNQTQIY | – |
